For experiment [1], the target named is CHO细胞表达的CSFV石门株E2蛋白 (classical swine fever virus, Shimen strain).
The target of experiment [2] is CSFV感染细胞的E2蛋白 (CSFV石门株病毒的E2蛋白) (classical swine fever virus, Shimen strain). Description: cell-based or functional assay.

B1: 重组猪瘟病毒E2蛋白猪源化单克隆抗体rHQ06 Sw (antibody, V domains shown)
VH: QVQLQQSGGGLVQPKGSLKLSCAASGFTFNNNAMDWVRQAPGKGLEWVARIRTKSNYYATSYADSVKDRFTISRDDSQSMLYLQMNNLKTEDTAIYFCVREGYYAWFAYWGQGTLVTVSA
VL: DIVLTQTPSSLAVSIGEKVTMSCKSSQSLLYSRNQKNYLAWYQQKPGQFPKLLIYWASTRESGVPDRFTGSGSGTDFTLTISSVKAEDLAVYYCQQYYSYPYTFGGGTKLEIKR
A word on the Kd: it is the free concentration of one partner at which half of the binding sites on the other are occupied at equilibrium, for simple one-to-one binding. Read a low Kd as tighter binding. The term kon denotes the rate constant with which the complex forms. A high value points to faster complex formation. Turning to B1, in experiment [1], the Kd is 13.1 nM and the kon turned out to be 98400 M⁻¹ s⁻¹. Also, the 中和效价 (病毒中和试验, IFA) in experiment [2] was determined as 12.

These data come from patent publication CN107973850A.
